For assay [1], the target named is T1, human CD96v1 on transiently transfected HEK cells (human, UniProt P40200 22-585).
T1 construct: whole, on cells
T1 sequence (looked up): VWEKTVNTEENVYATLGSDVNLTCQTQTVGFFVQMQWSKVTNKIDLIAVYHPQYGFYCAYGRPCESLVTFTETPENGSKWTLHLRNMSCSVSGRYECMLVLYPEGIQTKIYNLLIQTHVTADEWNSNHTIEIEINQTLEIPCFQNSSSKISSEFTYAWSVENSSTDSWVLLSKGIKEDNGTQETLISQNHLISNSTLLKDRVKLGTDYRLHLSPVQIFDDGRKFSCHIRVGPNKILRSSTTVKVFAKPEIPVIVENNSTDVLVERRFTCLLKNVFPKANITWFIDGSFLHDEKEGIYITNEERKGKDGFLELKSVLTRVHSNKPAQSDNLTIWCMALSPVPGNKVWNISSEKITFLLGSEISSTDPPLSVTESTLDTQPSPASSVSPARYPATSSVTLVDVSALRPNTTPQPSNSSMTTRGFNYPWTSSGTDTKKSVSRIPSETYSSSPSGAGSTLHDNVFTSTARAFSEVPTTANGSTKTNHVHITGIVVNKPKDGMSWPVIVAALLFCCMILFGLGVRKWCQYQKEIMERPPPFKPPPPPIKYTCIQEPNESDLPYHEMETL
The experiment in a line: flow cytometry on transiently transfected HEK cells; upper end of range, n = 3. Background: Flow cytometry measures light scatter and fluorescence of single cells or particles in a stream.

The target in assay [2] is T2, blood derived cynomolgus monkey CD96v2 on transiently transfected HEK cells (cynomolgus monkey).
T2 construct: also called Blood derived Cyno CD96v2
The description is as above.

Assay [3] addresses T3, cynomolgus monkey CD96v2 expressed on cells (CHO cells; transiently transfected HEK cells) (cynomolgus monkey, UniProt A0A2K5TWV6 22-569).
T3 construct: the cell is named under assay; also called CHO-cyCD96; Cyno CD96v2
T3 sequence: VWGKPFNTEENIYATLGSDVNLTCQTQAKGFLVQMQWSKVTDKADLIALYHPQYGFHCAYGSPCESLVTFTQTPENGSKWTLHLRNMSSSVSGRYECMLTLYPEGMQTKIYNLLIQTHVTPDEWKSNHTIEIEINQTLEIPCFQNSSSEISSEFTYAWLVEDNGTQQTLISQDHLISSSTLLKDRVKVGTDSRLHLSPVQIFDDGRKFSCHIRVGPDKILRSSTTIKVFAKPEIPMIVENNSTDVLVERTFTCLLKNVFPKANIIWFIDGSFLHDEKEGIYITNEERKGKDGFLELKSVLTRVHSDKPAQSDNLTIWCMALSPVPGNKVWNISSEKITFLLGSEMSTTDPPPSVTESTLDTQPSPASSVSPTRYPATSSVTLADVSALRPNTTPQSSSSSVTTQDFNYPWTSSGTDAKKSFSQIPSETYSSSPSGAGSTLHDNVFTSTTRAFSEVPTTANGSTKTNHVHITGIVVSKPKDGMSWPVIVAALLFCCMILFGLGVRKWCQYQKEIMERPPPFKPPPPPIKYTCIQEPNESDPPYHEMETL
The description is as above.

The target of assay [4] is T4, cynomolgus monkey CD96v1 on transiently transfected HEK cells (cynomolgus monkey).
T4 construct: whole, on cells; also called Cyno CD96v1
The assay is described as above.

Assay [5] deals with T5, human CD96v2 expressed on cells (CHO cells; transiently transfected HEK cells) (human, UniProt P40200-2 22-569).
T5 construct: whole, on cells; the cell is named under assay; also called CHO-huCD96; hCD96v2
T5 sequence (looked up): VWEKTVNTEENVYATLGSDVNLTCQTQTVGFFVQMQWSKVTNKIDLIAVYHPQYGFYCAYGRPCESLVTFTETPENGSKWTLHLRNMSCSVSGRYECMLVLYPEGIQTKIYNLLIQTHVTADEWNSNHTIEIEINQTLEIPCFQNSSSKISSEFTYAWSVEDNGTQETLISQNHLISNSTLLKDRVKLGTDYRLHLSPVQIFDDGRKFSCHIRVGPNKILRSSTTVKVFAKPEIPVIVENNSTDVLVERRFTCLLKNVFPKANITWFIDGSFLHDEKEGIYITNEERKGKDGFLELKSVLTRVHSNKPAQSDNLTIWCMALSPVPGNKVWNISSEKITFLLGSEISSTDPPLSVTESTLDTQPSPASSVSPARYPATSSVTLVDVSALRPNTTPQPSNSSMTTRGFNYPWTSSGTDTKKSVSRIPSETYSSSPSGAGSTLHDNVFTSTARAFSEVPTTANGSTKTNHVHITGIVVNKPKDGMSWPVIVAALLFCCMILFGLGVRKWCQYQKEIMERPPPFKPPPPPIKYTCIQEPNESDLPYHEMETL
The description is as above.

Assay [6] addresses T3, cynomolgus monkey CD96v2 expressed on …. Put plainly: flow cytometry on transiently transfected HEK cells (Cyno CD96v2).
The target of assay [7] is T6, recombinant murine CD96v2 (mouse, UniProt Q3U0X8 22-536, limits assumed).
T6 construct: Soluble recombinant protein used in MSD-SET; also called mouse CD96
T6 sequence (looked up): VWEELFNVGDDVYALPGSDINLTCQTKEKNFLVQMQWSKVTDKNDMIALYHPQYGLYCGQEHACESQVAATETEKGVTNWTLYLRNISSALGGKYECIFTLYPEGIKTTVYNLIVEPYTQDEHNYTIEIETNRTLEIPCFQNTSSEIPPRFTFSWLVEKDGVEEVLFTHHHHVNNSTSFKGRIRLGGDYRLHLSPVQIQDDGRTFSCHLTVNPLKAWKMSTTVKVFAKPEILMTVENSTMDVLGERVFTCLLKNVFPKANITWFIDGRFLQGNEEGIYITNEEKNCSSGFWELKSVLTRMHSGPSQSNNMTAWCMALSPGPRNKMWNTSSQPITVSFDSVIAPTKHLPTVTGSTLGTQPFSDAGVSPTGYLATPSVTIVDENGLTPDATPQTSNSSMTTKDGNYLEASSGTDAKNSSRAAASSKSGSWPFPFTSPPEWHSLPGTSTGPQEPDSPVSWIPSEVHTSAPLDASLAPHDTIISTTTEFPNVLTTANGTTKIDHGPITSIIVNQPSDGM
Put plainly: MSD-SET solution equilibrium titration, antibody titrated against constant CD96, free antigen detected.

For assay [8], the target named is T7, human complement component C1q (human, UniProt P02745 23-245; P02746 28-253; P02747 29-245).
T7 construct: the three subunits are from general knowledge
Put plainly: SPR. (In general: In SPR one partner is held on a chip, and binding of the other changes the refractive index at the surface.)

What is called EC50 is the midpoint of the concentration-response curve. The EC50 (read off the curve) is the concentration giving half of the maximal effect. In general, Kd refers to the free concentration of one partner at which half of the binding sites on the other are occupied at equilibrium, for simple one-to-one binding.

T7 sequence (P02745 23-245 limits assumed, chain 1 of 3): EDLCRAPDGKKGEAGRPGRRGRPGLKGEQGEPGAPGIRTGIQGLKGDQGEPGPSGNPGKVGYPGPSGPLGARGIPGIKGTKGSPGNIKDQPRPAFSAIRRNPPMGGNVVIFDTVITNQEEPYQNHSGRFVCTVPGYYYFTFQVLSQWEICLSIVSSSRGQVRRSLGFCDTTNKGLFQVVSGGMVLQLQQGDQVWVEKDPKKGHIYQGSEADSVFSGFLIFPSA
T7 sequence (P02746 28-253 limits assumed, chain 2 of 3): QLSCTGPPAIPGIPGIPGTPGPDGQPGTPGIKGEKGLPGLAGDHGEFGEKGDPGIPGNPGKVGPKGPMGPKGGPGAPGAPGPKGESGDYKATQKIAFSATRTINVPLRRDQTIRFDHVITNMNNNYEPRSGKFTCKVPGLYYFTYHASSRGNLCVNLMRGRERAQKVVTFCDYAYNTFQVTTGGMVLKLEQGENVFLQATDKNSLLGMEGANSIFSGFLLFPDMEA
T7 sequence (P02747 29-245 limits assumed, chain 3 of 3): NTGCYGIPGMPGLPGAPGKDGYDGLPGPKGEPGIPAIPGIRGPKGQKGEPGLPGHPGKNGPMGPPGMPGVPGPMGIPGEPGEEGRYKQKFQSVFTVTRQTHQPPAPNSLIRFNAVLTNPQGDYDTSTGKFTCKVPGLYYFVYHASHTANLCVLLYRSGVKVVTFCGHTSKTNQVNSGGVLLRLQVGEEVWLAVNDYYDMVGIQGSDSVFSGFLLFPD

B1: 42Y073-86F08-66 (antibody)
heavy: not shown
light: DIQLTQSPSSLSASVGDRVTITCRASQSISSYLNWYQQKPGKAPKLLIYAASSLQSGVPSRFSGSGSGTDFTLTISSLQPEDFATYYCQQVLHTITFGGGTKVEIKRTVAAPSVFIFPPSDEQLKSGTASVVCLLNNFYPREAKVQWKVDNALQSGNSQESVTEQDSKDSTYSLSSTLTLSKADYEKHKVYACEVTHQGLSSPVTKSFNRGEC
notes: also called GSK 6097608; GSK6097608
For B1, the concentration for a half-maximal effect (EC50) is 8.89 nM in assay [1]; 10.2 nM in assay [2]; 11.2 nM in assay [3]; 12.3 nM in assay [4]; 8.78 nM in assay [5]. Also, the 50% effective concentration (EC50 (read off the curve)) in assay [6] was approximately 6 nM. Besides, the “IC50 (read off the curve)” value in assay [7] is approximately 0.5 nM. In assay [8], this molecule displayed a dissociation constant Kd of 94.4 nM.
